The nature of the data set: soluble on expression in E. coli; label from the status in PepcDB or PDB records.
With “MHQQLMVMIDRKRRRSFIMMRSMFSGVSGLQAHQTKMDVIGNNVANVNTVGFKSSRVTFQEVFSQTLKGASSPDPTTGRGGTNPMQVGLGLGVATIDTLMTRGSVQRTDNPTDLAIEGDGFFIVKGGSSDTFKFTRAGNFGIDRLGNLVTGSGLNVYGWQSYTKLPDGTYKFDTESQIEPINLYSDDVNKNKRMIAAKATTYAIFEGNLDASYSIYSSAASGTSSNNRFTMPVTVYDSLGNSYKINISFWKTDVTGGVTTWTWQVDSGNGVTASGATGTILFDDQGQVIESSAVTPSITIIPDSSVGSQNINVKLDFSRLTMYAADSSAKATNVDGYPAGSLVTFSIGSDGMIMGIYSNGQQQPLGLIALASFDNPAGLEKVGENMYIPTSNSGEFKKGVKAGTEGVGTLSPGTLEMSNVDLSKEFTEMIITQRGFQANSRIITTSDEMLQELVNLKR”, the “soluble on expression in E. coli” value is “not soluble”. Regarding “MMNIQVLKVSGNGNINAIADTINKYVIEDGIVHIDAIGIKATYTTVKALIQVVESLVNKGYRFNLRPYYVKVNTAGNDIQPISKTAIRWTLIAKEK”, the “soluble on expression in E. coli” value is “soluble”. As for “MGSDKIHHHHHHMDGVKCQFVNTNGITLHVAAAGREDGPLIVLLHGFPEFWYGWKNQIKPLVDAGYRVIAPDQRGYNLSDKPEGIDSYRIDTLRDDIIGLITQFTDEKAIVIGHDWGGAVAWHLASTRPEYLEKLIAINIPHPHVMKTVTPLYPPQWLKSSYIAYFQLPDIPEASLRENDYDTLDKAIGLSDRPALFTSEDVSRYKEAWKQPGALTAMLNWYRALRKGSLAEKPSYETVPYRMIWGMEDRFLSRKLAKETERHCPNGHLIFVDEASHWINHEKPAIVNQLILEYLKNQ”, the entry is “not soluble”. Under “METPQTGYQVKTYNVPVKRYCQTLDLRDSPELIAEYRKRHSQAEVWPEILAGIREVGILEMEIYILGTRLFMIVETPVDFDWDTAMARLNTLPRQQEWEEYMSILQQAAPGMSSAEKWIPMERMFHLYNT” stands “not soluble”. Under “MGSDKIHHHHHHMIESIQELLQKEAQAVLNIPVTDAYEKAVELIVEQIHRKKGKLVTSGMGKAGQIAMNIATTFCSTGIPSVFLHPSEAQHGDLGILQENDLLLLISNSGKTREIVELTQLAHNLNPGLKFIVITGNPDSPLASESDVCLSTGHPAEVCTLGMTPTTSTTVMTVIGDILVVQTMKRTEFTIEEYSKRHHGGYLGEKSRKLCVK” stands “not soluble”; under “MNTTLFRWPVRVYYEDTDAGGVVYHASYVAFYERARTEMLRHHHFSQQALMAERVAFVVRKMTVEYYAPARLDDMLEIQTEITSMRGTSLVFTQRIVNAENTLLNEAEVLVVCVDPLKMKPRALPKSIVAEFKQ”, “soluble”; under “MKKKIIKKKSAAAPASKIPDDFEMPMARVADEDDVAEDYKVVDMSEIAAPIIEFEMPNLVEKSPEEFKNSEVTGEASREVSVKTPKKVTKRVRKSSKTDKTDQIPLTAEKLNNELVALRATCLTAKNQLMSRIVRQKKQLESKKSQKVDGKSKEERDRKIARLVEEILGLKTFDKDSVAKFAALNTKSLAELKINGKTEVAERLMYKLVCQSIIVEKIQSIREKYTEWNKTAAFFMQRLGQQYANKPEKKSKKSTEKKELNIENLEDLNNEDEDSENEKEEEIEENEEDYDQSDIEMLDSDEEEAGEEAAKNRRNLLLGLIGVQEDKNRPSLAPKKRKLVEEEDEEVETVKNQKKMKQIFEKELKSKEVKNPKKSNKSTKKPTKSAPIVKKVEEKKVEENEVSDDESDQKTLVMKVDLSKGGKIAKAQKFSTTAPKSAKIVAPVSEDENDDDESSSFFLPKSGVVAPRKIIPKKPSENVEKVDKRFQKGTQKKSEAVVEKKKGSSKSAVSGEMHPSWIASQLKKKELASAKPCGKKITFGDDEEE”, “not soluble”.

For “SMEVFQNHFEPGVYVCAKCGYELFSSRSKYAHSSPWPAFTETIHADSVAKRPEHNRSEALKVSCGKCGNGLGHEFLNDGPKPGQSRFSIFSSSLKFVPKGKETSA”, the “soluble on expression in E. coli” value was “soluble”. As for “MNYIRKLYKQDYRGFESLPHRRENVIEKYSVKSQRPLLKKYLVEDFGGMCIYCGWNCKRYDAASFHIEHIKSQIDNESLIDDYSNLALSCPICNTTKNKKALPSDLDPLGEDYKNLFYRNNRGAIVTNNDIEDRKKALSQQYIKILGLSKELYKLDYVQTSLNIIKRRLRQSDKINLELINSITEILDFIDDNYTRQSNLTLLEHHHHHH”, the entry is “not soluble”. As for “MSESYTLIKELKRQLKSAGLHYVDVAQHLNLSEGSVKRLLAEGQHISLERLERICQLIGLEMAELFKLAAAHNKGLESLTLEQEKQLVDDKALLLVAICVVNGYQFEQIVQQYTFNELELVQKLAHLDRLNIIDLQPNNKIRLRISPTFKWQMGGPIQRFFQQQVQDAFFQSYFSGEDEQLSMATGLMSVPTNKKLQQKLQKVIDEFYQACQSDSSLDMDEKHGTSLIIAMRRWTFPLFEPWERKPTQKSQN”, the entry is “not soluble”. “MAELNFKAIEEKWQKRWLEAKIFEPNIRDKPKEKKFYITVAFPYLSGHLHVGHARTYTIPDVIARFKRMQGYNVLFPMAWHITGSPIVGIAERIKNRDPKTIWIYRDVYKVPEEILWTFEDPINIVKYFMKAAKETFIRAGFSVDWSREFYTTSLFPPFSKFIEWQFWKLKEKGYIVKGAHRVRWDPVVGTPLGDHDLMEGEDVPILDYIIIKFELRENGEVIYLPAATLRPETVYGVTNMWVNPNATYVKAKVRRKDKEETWIVSKEAAYKLSFQDREIEVIEEFKGEKLIGKYVRNPVSGDEVIILPAEFVDPDNATGVVMSVPAHAPFDHVALEDLKRETEILEKYDIDPRIVENITYISLIKLEGYGDFPAVEEVNKLGIKSQKDKEKLEQATKTIYKAEYHKGIFKVPPYEGKPVQEVKEAIAKEMLEKGIAEIMYEFAEKNVISRFGNRAVIKIIHDQWFIDYGNPEWKEKARKALERMKILPETRRAQFEAIIDWLDKKACARKIGLGTPLPWDPEWVIESLSDSTIYMAYYTISRHINKLRQEGKLDPEKLTPEFFDYIFLEEFSEDKEKELEKKTGIPAEIIHEMKEEFEYWYPLDWRCSGKDLIPNHLTFFIFNHVAIFREEHWPKGIAVNGFGTLEGQKMSKSKGNVLNFIDAIEENGADVVRLYIMSLAEHDSDFDWRRKEVGKLRKQIERFYELISQFAEYEVKGNVELKDIDRWMLHRLNKAIKETTNALEEFRTRTAVQWAFYSIMNDLRWYLRRTEGRDDEAKRYVLRTLADVWVRLMAPFTPHICEELWEKLGGEGFVSLAKWPEPVEEWWNETIEAEEEFIRSVMEDIKEIIEVAKIENAKRAYIYTAEDWKWKVAEVVSEKRDFKSSMEELMKDSEIRKHGKEVAKIVQKLIKERTFDVKRINEEKALREAKEFMEKELGIEIIINPTEDKGGKKKQAMPLKPAIFIE”: the “soluble on expression in E. coli” value is “soluble”. Take “MEYLDEIKTLGLKPNTITYSMLMLASERKDDFEVSFKLLSQAKGDGVSPNLIMCRCITSLCKRRFEKACAGGEPVVSFKSGRPQIENKWTSMALMVYRETISGGTVPTTEVVSQVLGCLQLPHDAALRDRLISTLGINISSQKQHNIFPLVDGFGEYDPRAFSLLEEATSLGVLPSVSFNKIPLFFDTTELPKNVAEVYLLTIFKGLKHRLAAGAKIPHINLIISIQEKEIRTPEGEKTIDLTGRVGQEIGALLRRGFKIIASTIRKPNQSSATQHSTREPVT”: the “soluble on expression in E. coli” value is “not soluble”. Under “MGVVHDVWRATKELLEATALPWPSEEREERLAAVDRLLREREELLRKLRPPYSEEEQELGREIIVWNQEIEARLLRVCEEIRRDLRMTGAKRQANARYVHPYEQPLSFDGMFYDKRR” stands “not soluble”.

For the sequence “GPLGSMIVFVRFNSSHGFPVEVDSDTSIFQLKEVVAKRQGVPADQLRVIFAGKELRNDWTVQNCDLDQQSIVHIVQRPWRK”, the “soluble on expression in E. coli” value was “soluble”.

“MGSDKIHHHHHHMKHYEAYGIATRNTKIQGQFYRLADEEVFIHHFEPLQKNNDIILLLHGYMDHSLTSARLINRLISEGFEVVALDWPGHGLSKGETYHIRSFRQYNTIFLQLVQDMIERWGSDRIHLIAHSTGAGVVLDGLTNNLKKMPTGGIVLTSPLIKLPSHRIGKLFLPFVRKWRKQVRRIYRTNSSDPLFMKAIEEDPLQHEVIPLTWFDAYLQWHEDMRRRAKCSAENVTILQGTRDTTVHWKANMKWLAETLPSAERILIDGGGHHLWNEGDLIRELVFRFILKRLKKT”: the “soluble on expression in E. coli” value was “not soluble”. As for “MGHHHHHHSHPSIPNPFPELCCSPFTSVLSADLFPKANSRKKQVIKVYSEDETSRALDVPSDITARDVCQLLILKNHYIDDHSWTLFEHLPHIGVERTIEDHELVIEVLSNWGIEEENKLYFRKNYAKYEFFKNP”, the entry is “soluble”. For “YDKRIHRFRKGWNSLIPTHNKIQYAGNMGMFSFGTGWDYGKRDQWETDLFFGFIPKHDSHRAKMTMTLKQNYMPWSLELGKGFSTEPLACGIYFNTVFGHEFWVHEPSRYPEGYYGFSSKIRTHIFLGQRLTYDIDRERRFFAKSVTLFYELSTCDLLLISRVTNSYLRARDYLSLSFGLKFQWL”, the “soluble on expression in E. coli” value is given as “not soluble”. Consider “MKLALFDLDNTLLAGDSDFQWAQFLIEQQVLDREVYEARNIEFYEQYKAGTLDIHEFLDFQLKPLSRHPREQLNTWRSDFIERKIAPLIAPGARELIARHQAEKDLCIIITATNSFVTAPIARMLGIDHLIATEPEQKNGEFTGRVTGIPSFQAGKITRLEQWLDAHNLTWLSFLQSWFYSDSLNDLPLLKRVTHPVAVDPDATLHEHAKKSGWPIISLRQ”, for which the “soluble on expression in E. coli” value is given as “not soluble”. Under “MGSDKIHHHHHHMKTKMPEMLSFISEEAVSRKMTSEEIAAHFGYDKHHFSRKFKEINGFSVVEFLSSLKVEKAIIELNEEKRILDLQEHSGFESSGSFTNTFKKYTGSSPRKYKTEMNDIFYDMKRFENDNKDKSIAHFQEKNDSFCTVTIDVPDEFEKGIIFIGLFRTLIPNHMPISGLATKNLIGNQLKNIPSGDYYLLACAISQSNNILSYFNLSNSLRGKEDEKLSFPKCSGKHYAIKLREPIPEDPPILANVGKILISCLKNTI” stands “not soluble”; under “MGSDKIHHHHHHMSKKIIDEVIDILEDKKYTYTMIEYPEHNRKSVDIVLNSKEPTLIRVSEDKITKEEISDLKKIAVSTLTASLVVTNEEEEDIVSVKADNVFAISPEGFKKVINGEKIFLYRTRGGIFIKIRNYILKHKREEMGYSIGDVAKFLGVSRKAIYDYEKGDSDVSLEVAEKLIDLFGDDIIGDVIWDSIKSKKEILEEGVAEFSPENFKAKLIYKLKESGLNALSLKLTAADLIVKDSDNNRYLVTIENKDYNKSMKKFYEAKKLASYTKSELVIIIRTSKMLKECEDLGYKTYEENDIHSLIDEIKGSNGRQG”, “not soluble”; under “MGSHHHHHHDITSLYKKAGSENLYFQGMKFSEECRSAAAEWWEGSFVHPFVQGIGDGTLPIDRFKYYVLQDSYYLTHFAKVQSFGAAYAKDLYTTGRMASHAQGTYEAEMALHREFAELLEISEEERKAFKPSPTAYSFTSHMYRSVLSGNFAEILAALLPCYWLYYEVGEKLLHCDPGHPIYQKWIGTYGGDWFRQQVEEQINRFDELAENSTEEVRAKMKENFVISSYYEYQFWGMAYRKEGWSDSAIKEVEECGASRHNG”, “soluble”. As for “MIPDQRRELMLRQLRKHQVLSVHQLMEMFDCSHMTIRRDIAQLEQEGRAYSVTGGVRIASQVHSEPSHQSKAVVELPHKQGMARLAAGLLHPDMTIYLDAGTSTLEIVPHIIALSGMTVVTNDFGVVNALADAAHVDVIHTGGLLDHPNRSSVGGLAAATLRQLATDVAFMSTSSWDLQRGTTTPSALKVEVKQAAMQSASQTVLVATSSKYGTFGMYKVAGLDQFDTIISDAALAEAAADGIRKQRIELLLAPVGGRSKLEHHHHHH”, the entry is “not soluble”.

The values above are taken from the DeepSol protein solubility set.
